This is an account of results in publication PMC7495468.

The target in the experiment is HKU1-A HE ectodomain (human coronavirus HKU1 haemagglutinin-esterase, type A) (human coronavirus HKU1 (type A)). Description: […] (4 mg/ml; SEC buffer 10 mM Tris-HCl pH 8, 50 mM NaCl), […].

As usually defined, the stoichiometry N is the number of molecules, sites or subunits per partner or assembly. Substance “HKU1-A HE ectodomain (human coronavirus HKU1 haemagglutinin-esterase, type A) (domain or fragment)” returned a stoichiometry N of 2.
